# According to US12552837B2, “Bicyclic peptide ligands with detectable moieties and uses thereof” (BicycleRD Limited, priority 2017, dated 2026):
# Read-outs that look alike come from different tables or passages of the source. *1 amine or outer side, *2 acyl side, *3 side chain or, on linkers, in order; H or OH if unused. Where a SMILES comes first, the peptide text is derived from it. Bridges are numbered along the chain shown (N, C = ends). [ ]: non-standard residue; d: D form. The star is where a group is joined. DOTA = O=C(O)CN1CCN(CC(=O)O)CCN(CC(=O)*)CCN(CC(=O)O)CC1; 1Nal = N[C@@H](Cc1cccc2ccccc12)C(=O)O; TBMB = c1c(C[*:1])cc(C[*:3])cc1C[*:2]; Palmitoyl = CCCCCCCCCCCCCCCC(=O)*; Tle = CC(C)(C)[C@H](N)C(=O)O; βAla = NCCC(=O)O; Sar = CNCC(=O)O
# Key:
# [1] = Organ distribution of 177Lu-labelled peptides in HT1080 xenograft mice; assay type: in vivo, BALB/c nu/nu mice; settings: male, BALB/c nu/nu, iv, total radioactivity
# Method: (§1) General procedure for radiolabelling with Lu-177.
# (§2) • 50 μL 0.25 M Na-Acetate buffer pH 5.2+0.1% Tween 20; • 10 μL [Lu-177]LuCl3 in 0.05 M HCl; and • 2 μL of the diluted peptide (2 nmols). […]
# (§3) Organ distribution studies, general method: For organ distribution, the respective dose is prepared by dilution of the labeling reaction mixture in injection buffer (0.25 M Na-Acetate pH 7+0.05% Tween20). The ^177Lu-radiolabeled peptide was injected via the tail vein of the nu/nu mice (50 kBq per mouse), transplanted with the respective cell line. At indicated time points after injection the animals were sacrificed. Blood, heart, lung, spleen, liver, kidney, muscle, brain, femur, and the tumor were dissected, blotted dry, and weighed. The radioactivity was measured with a γ-counter (CobraII; Canberra Packard) along with a sample of the injection solution to calculate the percentage injected dose per gram of tissue (% ID/g).
# (§4) The γ- and β-emitter ^177LuCl3 (NEZ307D, Perkin Elmer, in 0.04 M HCl), with a t1/2 of 6.7 days was used for both in vivo biodistribution and internalization studies. Labeling reactions were performed by adding 10 μL ^177LuCl3 (˜10 MBq) in 50 mM HCl, 2 μL of the diluted peptide (1 mM solution in 50 mM HEPES buffer pH 7+0.1% Tween 20 diluted from a 10 mM DMSO stock) to 50 μL 50 mM HEPES buffer pH 7 supplemented with 0.1% Tween 20. The reaction mixture was incubated at 98° C. for 10 minutes. The radiochemical yield (RCY) was determined using high performance liquid chromatography (HPLC) system equipped with a Latek P402 (Latek, Eppelheim, Germany), a HITACHI variable UV detector (absorbance was measured at 214 and 254 nm) and a gamma detector (Bioscan, WA, USA), using a Chromolith RP-18 column (100×4.6 mm; Merck). The analytical HPLC run was performed at 4 mL/min, using a linear A (0.1% trifluoroacetic acid (TFA) in water) to B (0.1% TFA in acetonitrile) gradient (0% B to 100% B in 6 min). Thin-layer chromatography was performed in parallel to confirm the results of the radio-HPLC. The RCY was generally >95%, and thus, the output of labelling reactions was directly diluted with the appropriate buffer and further unlabeled peptide if required, to use in subsequent experiments.
# (§5) 5×10^6 cells of HT1080 were subcutaneously inoculated into the right trunk of male 6-week-old BALB/c nu/nu mice (Charles River Laboratories). The tumors were grown for approximately 1 week, to a maximum size of ˜200 mm^3. Respective doses were prepared by mixing a fixed quantity of 5 pmoles ^177Lu labelled peptides (at approx. 50 kBq) with different quantities of non-labelled peptide (derived from 1 mM stock solution in 0.25 M sodium acetate pH 7+0.05% Tween20) in 100 μL injection buffer (0.25 M sodium acetate pH 7+0.05% Tween20). 3 animals were used per dose and timepoint. Radiolabelled peptide solutions were injected via the tail vein, followed by sacrifice at various time points. Organs of interest (blood, heart, lung, spleen, liver, kidney, muscle, small intestine, brain, HT1080 tumor) were dissected, blotted dry, and weighed. The radioactivity was measured using a gamma counter and calculated as % ID/g.
# [2] = tested on: HT1080 tumor; test: as above; assay type: in vivo, BALB/c nu/nu mice; settings: 177Lu-labelled, 48 hr p.i.
# Method: as §1, §2, §3, §4, §5
# [3] = target: MT1-MMP hemopexin domain (Homo sapiens, UniProt P50281); test: Fluorescence polarization direct binding / competition assay to MT1-MMP hemopexin domain
# Method: Direct Binding Fluorescence Polarization or Anisotropy Assays are performed by titrating a constant concentration of fluorescent tracer (here, the fluoresceinated bicyclic peptide to be studied) with its binding partner (here, the MT1-MMP hemopexin domain). As the concentration of binding partner increases during the titration, the polarization signal changes in proportion to the fraction of bound and unbound material. This allows determination of […] (Kd) quantitatively. Assay data can be fit using standard ligand binding equations.
# Typically, concentrations of the tracer are ideally well below the Kd of the tracer: titrant pair, and concentrations chosen are usually at ˜1 nM or less. The titrant (binding partner) concentration is varied from 0.1 nM up to typically 5 μM. The range is chosen such that the maximum change in fluorescent polarization can be observed. Buffers employed are phosphate buffered saline in the presence of 0.01% Tween. Experiments were run in black 384 well low-bind/low volume plates (Corning 3820), and the fluorescent polarization signal was measured using a BMG Pherastar FS plate reader. Fluorescent tracers referred to in the text are bicyclic peptides that have been fluoresceinated using 5,6-carboxyfluorescein. Fluoresceination may be performed on the N-terminal amino group of the peptide, which is separated from the bicycle core sequence by a sarcosine spacer (usually Sar10 (SEQ ID NO: 73)). This can be done during Fmoc solid phase synthesis or post-synthetically (after cyclization with the molecular scaffold reagent and purification) if the N-terminal amino group is unique to the peptide. Fluoresceination can also be performed on the C-terminus, usually on a Lysine introduced as the first C-terminal residue, which is then separated from the bicycle core sequence by a sarcosine spacer (usually Sar6 (SEQ ID NO: 69)). Thus, N-terminal tracers can have a molecular format described as Fluo-Ala-Sar10-A (SEQ ID NO: 72) (BicycleCoreSequence), and (BicycleCoreSequence)-A-Sar6-K (Fluo) (SEQ ID NO: 67) for a C-terminally fluoresceinated construct.
# Fluorescent tracers used in the Examples are A-(17-69)-A-Sar6-K (Fluo) (SEQ ID NO: 67), A-(17-69-07)-A-Sar6-K (Fluo) (SEQ ID NO: 67), and A-(17-69-12)-A-Sar6-K (Fluo) (SEQ ID NO: 67). Due to the acidic nature of the 17-69 fluorescent peptides, they were typically prepared as concentrated DMSO stocks, from which dilution were prepared in 100 mM Tris pH 8 buffer.
# Due to their high affinities to the MT1-MMP Hemopexin domain (PEX), the fluoresceinated derivatives of 17-69-07 and 17-69-12 (denoted as 17-69-07-N040 and 17-69-12-N005, respectively) can be used for competition experiments (using FP for detection). […] Dissociation of the complex can be measured quantitatively, and the Kd of the competitor (titrant) to the target protein determined. The advantage of the competition method is that the affinities of non-fluoresceinated bicyclic peptides can be determined accurately and rapidly.
# Subsequently, the non-fluorescent competitor bicyclic peptide (usually just the bicycle core sequence) is titrated, such that it displaces the fluorescent tracer from the target protein. The displacement of the tracer is measured and associated with a drop in fluorescence polarization. The drop in fluorescence polarization is proportional to the fraction of target protein bound with the non-fluorescent titrant, and thus is a measure of the affinity of titrant to target protein. […]
compound,measurement,setting,value
CCCCCCCCCCCCCCCC(=O)NCCC(=O)N(C)CC(=O)N(C)CC(=O)N(C)CC(=O)N(C)CC(=O)N(C)CC(=O)N[C@@H](CCCCNC(=O)CN1CCN(CC(=O)O)CCN(CC(=O)O)CCN(CC(=O)O)CC1)C(=O)N(C)CC(=O)N(C)CC(=O)N(C)CC(=O)N(C)CC(=O)N(C)CC(=O)N(C)CC(=O)N(C)CC(=O)N(C)CC(=O)N(C)CC(=O)N(C)CC(=O)N[C@@H](C)C(=O)N[C@H]1CSCc2cc3cc(c2)CSC[C@H](NC(=O)[C@@H](C)NC(=O)[C@H](Cc2cccc4ccccc24)NC(=O)[C@H](CCC(=O)O)NC(=O)[C@H](CC(N)=O)NC(=O)[C@@H](C)NC1=O)C(=O)N[C@@H](CCC(=O)O)C(=O)N[C@@H](CC(=O)O)C(=O)N[C@@H](Cc1ccccc1)C(=O)N[C@@H](Cc1ccc(O)cc1)C(=O)N[C@@H](CC(=O)O)C(=O)N[C@@H](C(C)(C)C)C(=O)N[C@H](C(N)=O)CSC3 [I-25] ({Palmitoyl-βAla}-[Sar][Sar][Sar][Sar][Sar]K(DOTA)[Sar][Sar][Sar][Sar][Sar][Sar][Sar][Sar][Sar][Sar]AC[dA]NE[1Nal][dA]CEDFYD[Tle]C-NH2; linker 18-24-31 via TBMB),tissue to tissue ratio at 6 h,"[1]; HT1080 tumor / blood, 750 pmole/mouse, 6 hrs, read-out: tumour to blood signal ratio",19
same,tissue to tissue ratio at 48 h,"[1]; HT1080 tumor / blood, 750 pmole/mouse, 48 hrs, read-out: tumour to blood signal ratio",97
same,tissue uptake at 2 h,"[1]; HT1080 tumor, 750 pmole/mouse, 2 h p.i., read-out: tumour accumulation",25 ± 1.61 %ID/g
same,tissue uptake at 6 h,"[1]; HT1080 tumor, 750 pmole/mouse, 6 h p.i., read-out: tumor uptake (maximum)",35.9 ± 1.11 %ID/g
same,tissue uptake at 48 h,"[1]; HT1080 tumor, 177Lu-labelled, 48 hr p.i., 750-1000 pmole/mouse, read-out: tumour signal",~26 %ID/g
same,tissue uptake at 48 h,"[1]; mouse, HT1080 tumor, 750 pmoles injected dose, 48 h p.i., read-out: tumor accumulation in HT1080 xenografts",24.1 ± 2.5 %ID/g
same,"signals in spleen, liver and small intestine",[2],< 4.5%
same,Kd,[3],2.25 ± 0.5 nM
